Data as given in publication PMC3302164.

Biological target: HA-PP1β, expressed in HEK 293 cells (human) (UniProt P62140)
Test: co-IP

Chain of HA-PP1β, expressed in HEK 293 cells (human) (P62140 whole entry): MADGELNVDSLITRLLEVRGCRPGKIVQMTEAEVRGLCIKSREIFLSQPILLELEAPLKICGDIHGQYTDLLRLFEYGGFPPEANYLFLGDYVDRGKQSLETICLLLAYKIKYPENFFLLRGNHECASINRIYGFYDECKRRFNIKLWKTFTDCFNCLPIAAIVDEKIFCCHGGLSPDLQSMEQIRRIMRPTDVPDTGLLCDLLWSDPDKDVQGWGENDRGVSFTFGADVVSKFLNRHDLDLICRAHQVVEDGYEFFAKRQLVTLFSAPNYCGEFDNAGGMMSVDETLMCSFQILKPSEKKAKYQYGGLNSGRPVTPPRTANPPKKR

extent of interaction relative to that with PP1α, after doxorubicin: 30%
Substance: FLAG-KAP1 (wild type), expressed in HEK 293 cells (from UniProt Q13263 1-835) (natural protein)
